From US20240148901A1

Molecular target: Recombinant gp120JR-FL (MyBioSource) (HIV)
Test: modified gp120 ELISA: gp120JR-FL coated plate, NanoLuc luminescence read-out

- sensitivity of the gp120 ELISA: 500 pg/mL
Substance: secreted PGT121-NanoLuc, purified (antibody)
